We go through 55 molecules from article PMC12416549 (2024).

Changes are numbered by the printed parent chain. Names and notes keep the numbering of the source.

The target of the test is T1, TNFR1 (Homo sapiens, UniProt P19438).
T1 chain: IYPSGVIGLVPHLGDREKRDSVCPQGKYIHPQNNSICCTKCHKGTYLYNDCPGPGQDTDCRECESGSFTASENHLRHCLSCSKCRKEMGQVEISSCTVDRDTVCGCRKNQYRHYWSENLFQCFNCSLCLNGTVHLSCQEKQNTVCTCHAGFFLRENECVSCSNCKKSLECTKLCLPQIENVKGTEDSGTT
The test is described as follows: yeast display SC50.

B1: I21W (designed binder)
chain: SMEEEVEKAAKEYEKKKKEAWEKHLEKLKAKDKEAAERFLKELEEAAKEYAKDEAKTMSEEEAKRRAKKYKEKVLLSELSEEEQKEIKEAEEKLVRTILKYVEEAAK
B1: the “apparent Kd (screen)” value is 0.49 nM.

B2: A63H (designed binder)
chain: B1 chain with W21I, A63H
Regarding B2, the “apparent Kd (screen)” value turned out to be 4.39 nM.

B3: E89F (designed binder)
chain: B1 chain with W21I, E89F
For B3, the “apparent Kd (screen)” value worked out at 1.86 nM.

B4: K15F (designed binder)
chain: B1 chain with K15F, W21I
Regarding B4, the “apparent Kd (screen)” value turned out to be 0.446 nM.

B5: E89Y (designed binder)
chain: B1 chain with W21I, E89Y
For the molecule B5, the “apparent Kd (screen)” value worked out at 2.25 nM.

B6: A10T (designed binder)
chain: B1 chain with A10T, W21I
As for B6, the “apparent Kd (screen)” value turned out to be 0.446 nM.

B7: D53F (designed binder)
chain: B1 chain with W21I, D53F
For the molecule B7, the “apparent Kd (screen)” value was found to be 2.48 nM.

B8: K18L (designed binder)
chain: B1 chain with K18L, W21I
For the molecule B8, the “apparent Kd (screen)” value came out at 1.69 nM.

B9: E72R (designed binder)
chain: B1 chain with W21I, E72R
On to B9, for which the “apparent Kd (screen)” value stood at 7.07 nM.

B10: K17F (designed binder)
chain: B1 chain with K17F, W21I
For B10, the “apparent Kd (screen)” value is 0.446 nM.

B11: E92H (designed binder)
chain: B1 chain with W21I, E92H
In the case of B11, the “apparent Kd (screen)” value was 3 nM.

B12: V95M (designed binder)
chain: B1 chain with W21I, V95M
B12: the “apparent Kd (screen)” value was 10.4 nM.

B13: A51K (designed binder)
chain: B1 chain with W21I, A51K
Take B13: the “apparent Kd (screen)” value worked out at 0.49 nM.

B14: E103T (designed binder)
chain: B1 chain with W21I, E103T
Turning to B14, the “apparent Kd (screen)” value came out at 0.718 nM.

B15: E81G (designed binder)
chain: B1 chain with W21I, E81G
Take B15: the “apparent Kd (screen)” value amounted to 1.16 nM.

B16: K56D (designed binder)
chain: B1 chain with W21I, K56D
As for B16, the “apparent Kd (screen)” value amounted to 7.78 nM.

B17: E3D (designed binder)
chain: B1 chain with E3D, W21I
Turning to B17, the “apparent Kd (screen)” value stood at 2.48 nM.

B18: K52H (designed binder)
chain: B1 chain with W21I, K52H
As to B18, the “apparent Kd (screen)” value turned out to be 0.956 nM.

B19: K64D (designed binder)
chain: B1 chain with W21I, K64D
For the molecule B19, the “apparent Kd (screen)” value was found to be 1.05 nM.

B20: A35V (designed binder)
chain: B1 chain with W21I, A35V
Consider B20, for which the “apparent Kd (screen)” value came to 0.653 nM.

B21: L99W (designed binder)
chain: B1 chain with W21I, L99W
In the case of B21, the “apparent Kd (screen)” value came to 11.4 nM.

B22: Y70N (designed binder)
chain: B1 chain with W21I, Y70N
For the molecule B22, the “apparent Kd (screen)” value is 8.56 nM.

B23: E104H (designed binder)
chain: B1 chain with W21I, E104H
On to B23, for which the “apparent Kd (screen)” value is 0.446 nM.

B24: E37K (designed binder)
chain: B1 chain with W21I, E37K
With B24, the “apparent Kd (screen)” value is 0.49 nM.

B25: K33Q (designed binder)
chain: B1 chain with W21I, K33Q
Regarding B25, the “apparent Kd (screen)” value stood at 0.869 nM.

B26: K31A (designed binder)
chain: B1 chain with W21I, K31A
Consider B26, for which the “apparent Kd (screen)” value is 0.718 nM.

B27: L75H (designed binder)
chain: B1 chain with W21I, L75H
Consider B27, for which the “apparent Kd (screen)” value was 1.69 nM.

B28: S59E (designed binder)
chain: B1 chain with W21I, S59E
Turning to B28, the “apparent Kd (screen)” value was 0.956 nM.

B29: A9M (designed binder)
chain: B1 chain with A9M, W21I
For the molecule B29, the “apparent Kd (screen)” value was determined as 0.446 nM.

B30: K31W (designed binder)
chain: B1 chain with W21I, K31W
Consider B30, for which the “apparent Kd (screen)” value stood at 0.79 nM.

B31: K88T (designed binder)
chain: B1 chain with W21I, K88T
For the molecule B31, the “apparent Kd (screen)” value came to 0.446 nM.

B32: E81N (designed binder)
chain: B1 chain with W21I, E81N
As for B32, the “apparent Kd (screen)” value stood at 0.49 nM.

B33: I87K (designed binder)
chain: B1 chain with W21I, I87K
On to B33, for which the “apparent Kd (screen)” value amounted to 9.41 nM.

B34: K33F (designed binder)
chain: B1 chain with W21I, K33F
With B34, the “apparent Kd (screen)” value came to 0.49 nM.

B35: K8N (designed binder)
chain: B1 chain with K8N, W21I
As to B35, the “apparent Kd (screen)” value came to 0.718 nM.

B36: A9Q (designed binder)
chain: B1 chain with A9Q, W21I
Take B36: the “apparent Kd (screen)” value was determined as 0.446 nM.

B37: L28Q (designed binder)
chain: B1 chain with W21I, L28Q
Turning to B37, the “apparent Kd (screen)” value stood at 0.539 nM.

B38: S80G (designed binder)
chain: B1 chain with W21I, S80G
In the case of B38, the “apparent Kd (screen)” value worked out at 2.48 nM.

B39: E4T (designed binder)
chain: B1 chain with E4T, W21I
With B39, the “apparent Kd (screen)” value came to 0.446 nM.

B40: K69E (designed binder)
chain: B1 chain with W21I, K69E
In the case of B40, the “apparent Kd (screen)” value was 0.593 nM.

B41: V6I (designed binder)
chain: B1 chain with V6I, W21I
Take B41: the “apparent Kd (screen)” value was 0.49 nM.

B42: A20R (designed binder)
chain: B1 chain with A20R, W21I
B42: the “apparent Kd (screen)” value was 0.446 nM.

B43: E78I (designed binder)
chain: B1 chain with W21I, E78I
Turning to B43, the “apparent Kd (screen)” value stood at 0.49 nM.

B44: M58V (designed binder)
chain: B1 chain with W21I, M58V
As to B44, the “apparent Kd (screen)” value is 2.25 nM.

B45: I87F (designed binder)
chain: B1 chain with W21I, I87F
For the molecule B45, the “apparent Kd (screen)” value was determined as 5.84 nM.

B46: E42K (designed binder)
chain: B1 chain with W21I, E42K
Consider B46, for which the “apparent Kd (screen)” value is 0.368 nM.

B47: S80D (designed binder)
chain: B1 chain with W21I, S80D
Take B47: the “apparent Kd (screen)” value came out at 1.4 nM.

B48: E60L (designed binder)
chain: B1 chain with W21I, E60L
On to B48, for which the “apparent Kd (screen)” value turned out to be 0.446 nM.

B49: K69V (designed binder)
chain: B1 chain with W21I, K69V
As to B49, the “apparent Kd (screen)” value came out at 0.49 nM.

B50: E7H (designed binder)
chain: B1 chain with E7H, W21I
Consider B50, for which the “apparent Kd (screen)” value was determined as 4.39 nM.

B51: A46D (designed binder)
chain: B1 chain with W21I, A46D
B51: the “apparent Kd (screen)” value was 2.73 nM.

B52: S59F (designed binder)
chain: B1 chain with W21I, S59F
With B52, the “apparent Kd (screen)” value worked out at 7.07 nM.

B53: R96K (designed binder)
chain: B1 chain with W21I, R96K
Turning to B53, the “apparent Kd (screen)” value came out at 0.718 nM.

B54: D53G (designed binder)
chain: B1 chain with W21I, D53G
Regarding B54, the “apparent Kd (screen)” value was determined as 12.5 nM.

B55: K52E (designed binder)
chain: B1 chain with W21I, K52E
Regarding B55, the “apparent Kd (screen)” value worked out at 0.446 nM.
